From patent publication US20050222029A1 (MYRIAD GENETICS, published 2005)

What was measured:
[1] = target: T1, Mitotic spindle coiled-coil related protein 668-895 (human, UniProt Q96R06 668-895); test: yeast two-hybrid
T1 construct: prey (Gal4 AD-HA fusion)
T1 sequence (looked up): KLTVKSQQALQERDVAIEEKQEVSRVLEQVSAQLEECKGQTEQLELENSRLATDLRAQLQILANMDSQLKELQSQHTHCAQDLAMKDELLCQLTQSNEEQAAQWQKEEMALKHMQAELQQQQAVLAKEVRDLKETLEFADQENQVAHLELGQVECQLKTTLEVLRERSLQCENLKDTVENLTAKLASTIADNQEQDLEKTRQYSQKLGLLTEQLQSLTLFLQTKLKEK

[2] = target: T2, GTPase-activiating protein 1 1299-1555 (human, UniProt P46940 1299-1555); test: yeast two-hybrid
T2 construct: prey (Gal4 AD-HA fusion); also called IQGAP1; IQGAP
T2 sequence (looked up): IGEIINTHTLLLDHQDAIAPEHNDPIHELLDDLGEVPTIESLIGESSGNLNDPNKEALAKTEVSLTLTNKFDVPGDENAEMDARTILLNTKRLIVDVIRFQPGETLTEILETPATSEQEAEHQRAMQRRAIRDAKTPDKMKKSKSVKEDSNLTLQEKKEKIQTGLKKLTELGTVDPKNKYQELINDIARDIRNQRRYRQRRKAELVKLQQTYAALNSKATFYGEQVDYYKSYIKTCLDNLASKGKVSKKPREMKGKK

Keratin 5 282-448 = target: T3, Keratin 5 282-448 (human, UniProt P13647 282-448); test: yeast two-hybrid
T3 construct: prey (Gal4 AD-HA fusion)
T3 sequence (looked up): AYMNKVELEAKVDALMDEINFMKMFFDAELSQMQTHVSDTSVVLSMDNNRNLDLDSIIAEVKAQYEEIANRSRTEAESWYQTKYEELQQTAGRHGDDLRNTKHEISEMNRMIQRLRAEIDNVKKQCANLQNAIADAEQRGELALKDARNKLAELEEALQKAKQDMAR

[3] = target: T4, Mitotic spindle coiled-coil related protein 701-1082 (human, UniProt Q96R06 701-1082); test: yeast two-hybrid
T4 construct: prey (Gal4 AD-HA fusion)
T4 sequence (looked up): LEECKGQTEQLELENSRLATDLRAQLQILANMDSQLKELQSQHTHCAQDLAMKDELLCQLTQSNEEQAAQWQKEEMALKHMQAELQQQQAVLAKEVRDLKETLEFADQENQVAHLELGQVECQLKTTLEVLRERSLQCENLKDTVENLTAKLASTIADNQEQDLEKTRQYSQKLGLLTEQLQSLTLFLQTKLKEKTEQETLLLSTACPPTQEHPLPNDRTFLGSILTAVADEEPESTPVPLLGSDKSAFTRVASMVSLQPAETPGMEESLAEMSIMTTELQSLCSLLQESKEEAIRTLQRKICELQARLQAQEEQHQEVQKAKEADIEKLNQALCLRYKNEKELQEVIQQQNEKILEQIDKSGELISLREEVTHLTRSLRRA

[4] = target: T5, GTPase-activiating protein 1 1413-1567 (human, UniProt P46940 1413-1567); test: yeast two-hybrid
T5 construct: prey (Gal4 AD-HA fusion); also called IQGAP1; IQGAP
T5 sequence (looked up): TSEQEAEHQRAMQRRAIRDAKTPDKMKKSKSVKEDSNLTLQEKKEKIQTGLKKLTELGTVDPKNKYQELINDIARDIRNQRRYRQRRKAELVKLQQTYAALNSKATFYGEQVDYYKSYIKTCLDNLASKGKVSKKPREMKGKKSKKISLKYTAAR

[5] = target: T6, GTPase-activiating protein 1 1308-1606 (human, UniProt P46940 1308-1606); test: yeast two-hybrid
T6 construct: prey (Gal4 AD-HA fusion); also called IQGAP1; IQGAP
T6 sequence (looked up): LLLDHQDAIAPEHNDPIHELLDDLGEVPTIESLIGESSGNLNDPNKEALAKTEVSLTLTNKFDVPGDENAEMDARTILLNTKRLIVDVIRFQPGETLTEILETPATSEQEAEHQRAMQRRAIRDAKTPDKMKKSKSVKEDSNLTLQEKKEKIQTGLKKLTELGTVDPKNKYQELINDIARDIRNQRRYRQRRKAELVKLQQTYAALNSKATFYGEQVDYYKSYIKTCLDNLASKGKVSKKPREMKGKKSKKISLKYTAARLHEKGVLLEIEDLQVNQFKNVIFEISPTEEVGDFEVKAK

Pallid 21-172 = target: T7, Pallid 21-172 (human, UniProt Q9UL45 21-172); test: yeast two-hybrid
T7 construct: prey (Gal4 AD-HA fusion)
T7 sequence (looked up): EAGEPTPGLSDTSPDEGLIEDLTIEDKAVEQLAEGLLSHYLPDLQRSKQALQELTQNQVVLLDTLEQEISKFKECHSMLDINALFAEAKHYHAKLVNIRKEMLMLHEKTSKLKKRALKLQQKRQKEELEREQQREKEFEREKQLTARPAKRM

Intersection 1 210-633 = target: T8, Intersection 1 210-633 (human, UniProt Q15811 210-633); test: yeast two-hybrid
T8 construct: prey (Gal4 AD-HA fusion); also called Intersectin 1; ITSN1
T8 sequence (looked up): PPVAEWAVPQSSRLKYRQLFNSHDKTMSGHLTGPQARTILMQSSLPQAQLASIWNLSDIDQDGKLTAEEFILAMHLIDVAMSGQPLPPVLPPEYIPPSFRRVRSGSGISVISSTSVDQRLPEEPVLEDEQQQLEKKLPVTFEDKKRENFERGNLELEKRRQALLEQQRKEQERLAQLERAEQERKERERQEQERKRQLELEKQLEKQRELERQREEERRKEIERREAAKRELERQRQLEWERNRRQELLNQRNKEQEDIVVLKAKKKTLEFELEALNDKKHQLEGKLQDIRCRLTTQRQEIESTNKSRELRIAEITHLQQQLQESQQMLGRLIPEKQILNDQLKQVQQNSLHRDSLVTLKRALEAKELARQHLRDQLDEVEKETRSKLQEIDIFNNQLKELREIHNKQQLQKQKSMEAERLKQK

VPS28 protein 27-221 = target: T9, VPS28 protein 27-221 (human, UniProt Q9UK41 27-221); test: yeast two-hybrid, breast and prostate cancer library
T9 construct: prey (Gal4 AD-HA fusion); also called vacuolar protein sorting 28
T9 sequence (looked up): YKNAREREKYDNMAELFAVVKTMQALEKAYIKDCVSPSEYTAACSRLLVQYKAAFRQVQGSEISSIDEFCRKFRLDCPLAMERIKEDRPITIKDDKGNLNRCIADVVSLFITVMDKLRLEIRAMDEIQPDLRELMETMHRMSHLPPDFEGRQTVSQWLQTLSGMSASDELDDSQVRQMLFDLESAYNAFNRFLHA

- binding result [1]: binds
- binding result [2]: binds
- binding result (Keratin 5 282-448): binds
- binding result [3]: binds
- binding result [4]: binds
- binding result [5]: binds
- binding result (Pallid 21-172): binds
- binding result (Intersection 1 210-633): binds
- binding result (VPS28 protein 27-221): binds
B1: Tumor Suppressor (TSG101) 240-391 (other, human, UniProt Q99816 240-390, looked up)
chain: WRMKEEMDRAQAELNALKRTEEDLKKGHQKLEEMVTRLDQEVAEVDKNIELLKKKDEELSSALEKMENQSENNDIDEVIIPTAPLYKQILNLYAEENAIEDTIFYLGEALRRGVIDLDVFLKHVRLLSRKQFQLRALMQKARKTAGLSDLY
notes: range 240-391; bait (Gal4 DBD fusion); also called TSG101 240-390
